Measurements published in patent US20190041401A1, “Methods of Treating Subjects having Severe and/or Persistent Asthma” (National Jewish Health, priority 2015, published 2019).

Legend:
[1] = system: human lung epithelial cell line A549; test: IL-33 mRNA induction in A549 cells (real-time PCR); assay type: cell-based; conditions: cytokine treatment for 72 hours, normalized to GAPDH
Description: (§1) FIGS. 18A-18J show the role of IL-33 in the persistence of asthma. FIG. 18A, A549 cells were cultured in medium alone or with IL-33 ([…]), IL-1b (2 ng/mL), IL-4 (10 ng/mL), IL-13 (20 ng/mL), IL-17 (10 ng/mL), TNF (2 ng/mL), IFN-γ (10 ng/mL), or IFN-γ plus TNF (same concentrations) for 72 hours, and then mRNA was analyzed for IL-33 normalized to glyceraldehyde-3-phosphate dehydrogenase (GAPDH). *P<0.05 and **P<0.01. There were 4 to 8 mice per group. FIGS. 18B-18E show the direct effect of IL-33 on airway hyperreactivity, lung ILCs, and autoinduction. […] IN, Intranasal. […] The change in RL with the 25-mg dose of methacholine is shown (n=5 per group). *P<0.05.
Immediately after flexiVent analysis, lung sections were collected in RIPA buffer (50 mmol/L Tris [pH 7.4], 150 mmol/L NaCl, 1 mmol/L EDTA, 1 mmol/L NaF, 1 mmol/L Na3VO4, and 0.1 mmol/L phenylmethylsulfonyl fluoride) containing protease and phosphatase inhibitors and homogenized. Lysed samples were subjected to 10% SDS-PAGE, transferred to a polyvinylidene difluoride membrane, and then immunoblotted with primary antibodies (IL-33 [R&D Systems], tubulin [H-235], and b-actin [Santa Cruz Biotechnology, Dallas, Tex]). After washing, the membranes were incubated with a horseradish peroxidase-conjugated secondary antibody. After additional washing, the membranes were developed with ECL reagent, as previously described (Gorska et al. 2007). A549 cell culture A549 cells were cultured in RPMI in 10% FBS (HyClone; Thermo Scientific, Waltham, Mass.) and 1% penicillin/streptomycin (Gibco, Carlsbad, Calif.) and maintained at 378C in a humidified 5% CO2 incubator. All cytokines were purchased from PeproTech (Rocky Hill, N.J.). In one experiment cells were treated with medium, IL-1b (2 ng/mL), IL-4 (10 ng/mL), IL-13 (20 ng/mL), IL-17 (10 ng/mL), IL-33 (20 ng/mL), TNF (2 ng/mL), IFN-g (10 ng/mL), and TNF (2 ng/mL) plus IFN-g (10 ng/mL) for 72 hours. Cellular RNA was analyzed for mRNA for IL-33 and IL-33R. In a second experiment cells were pretreated for 24 hours with medium, IL-1b (2 ng/mL), IL-4 (10 ng/mL), IL-13 (20 ng/mL), IL-17 (10 ng/mL), TNF (2 ng/mL), or IFN-g (10 ng/mL) before stimulation for 72 hours with IL-33 (20 ng/mL). Cellular RNAwas analyzed for mRNA for IL-33. In a third experiment cells were treated for 24 hours with DRA (5 μg/mL dust mite, 15 μg/mL ragweed, and 5 μg/mL Aspergillus species). Cellular RNA was analyzed for mRNA for IL-33. In a fourth experiment cells were treated for 24 hours with IL-13 (20 ng/mL) and ATP, and the supernatant was collected and analyzed for IL-33 levels by means of ELISA, according to the manufacturer's instructions (R&D systems). […]

[2] = system: A549 cells; test: Cytokine induction of IL-33R mRNA in A549 cells; assay type: cell-based, human; conditions: cytokine treatment for 72 hours
Description: as §1
(§2) Immediately after flexiVent analysis, lung sections were collected in RIPA buffer (50 mmol/L Tris [pH 7.4], 150 mmol/L NaCl, 1 mmol/L EDTA, 1 mmol/L NaF, 1 mmol/L Na3VO4, and 0.1 mmol/L phenylmethylsulfonyl fluoride) containing protease and phosphatase inhibitors and homogenized. […] Cellular RNA was analyzed for mRNA for IL-33 and IL-33R. […] Cellular RNAwas analyzed for mRNA for IL-33. […] Cellular RNA was analyzed for mRNA for IL-33. In a fourth experiment cells were treated for 24 hours with IL-13 (20 ng/mL) and ATP, and the supernatant was collected and analyzed for IL-33 levels by means of ELISA, according to the manufacturer's instructions (R&D systems). […]

[3] = system: A549 cells; test: IL-33 autoinduction in A549 cells after cytokine pretreatment; assay type: cell-based, human; conditions: pretreated 24 hours with cytokine, then 72 hours with IL-33 (20 ng/mL)
Description: as §1, §2

[4] = system: MEK^low population; test: Sensitivity of MEK^low CD4 population to dexamethasone-induced cell death; assay type: cell-based, human; conditions: BAL CD4 T cells, MEK^low (MFI 10)
From the text: FIGS. 5A-5H show the preferential expression of dual-positive TH2/TH17 cells in the BAL MEK^high CD4 T-cell population. FIGS. 5A and 5B, show the sensitivity of MEK^high and MEK^low CD4 populations to dexamethasone-induced cell death. Data are presented as percentages and absolute cell counts (in parentheses) per boxed area. […] FIGS. 5E and 5F show expression of dual-positive TH2/TH17 cells in MEK^high and MEK^low BAL CD4 T-cell populations. FIGS. 5G and 5H show the comparison of expression of dual-positive IL-4/IL-17 (FIG. 5G) and pSTAT3/pSTAT6 (FIG. 5H) cells in MEK^high and MEK^low cell populations.
Patients were allowed to continue their routine medication. Bronchoscopy and BAL were performed, as described previously (Good J T Jr, et al. Refractory asthma: importance of bronchoscopy to identify phenotypes and direct therapy. Chest 2012; 141:599-606). BAL fluid was processed immediately. Cells were isolated by means of centrifugation. Supernatant fluid was placed into aliquots in small samples and frozen. Cells were either cultured or fixed immediately in 4% paraformaldehyde and processed for flow cytometry. […]
Cells were stained with the following antibodies. […] This was detected with an Alexa Fluor 488-labeled anti-rabbit secondary antibody. […] Flow cytometric data were analyzed with FlowJo software (Tree Star, Ashland, Ore). […]

[5] = system: C57Bl/6 mice; test: Intranasal IL-33 administration, outcomes after 15 days; assay type: in vivo, mouse
Description: as §1
FIG. 27A, Effect of IL-13 on IL-33 secretion. A549 cells were treated overnight with medium or IL-13 (20 ng/mL) and ATP ([…]), and the released IL-33 was measured by using ELISA (n=6). *P=0.04. FIGS. 27B-27E, Direct effect of IL-33 on airway hyperreactivity and lung ILCs. C57Bl/6 mice were treated intranasally for 3 consecutive days with 400 ng per dose of IL-33. Outcome measures were evaluated 15 days after final exposure.
Measurement methodologies have been explained in depth in Goplen et al. (Goplen N, et al. Combined sensitization of mice to extracts of dust mite, ragweed, and Aspergillus species breaks through tolerance and establishes chronic features of asthma. J Allergy Clin Immunol 2009; 123:925-32.e11). Briefly, mice were anesthetized with ketamine (180 mg/kg), xylazine (9 mg/kg), and acepromazine (4 mg/kg). After loss of footpad pinch reflex, a tracheotomy was performed, and the mouse was attached with an 18-gauge cannula to a small-animal ventilator with a computer-controlled piston (FlexiVent; SCIREQ, Montreal, Quebec, Canada). Mice were ventilated at a frequency of 90 breaths/min with a tidal volume of 20 mL/kg during nebulization and otherwise with a frequency of 150 breaths/min with a tidal volume of 20 mL/kg while breathing against an artificial positive endexpiratory pressure of 2.5 to 3 cm H2O. Lungs were inflated to total lung capacity twice to standardize volume history. Resistance measurements were then taken to establish baselines for total lung resistance and at each methacholine dose. Group averages were expressed as fold increases in baseline resistance (means+SEMs).
Inflammation was quantified by using Metamorph image acquisition and analysis software on H&E-stained lung sections at 20× magnification, as described in Goplen et al. 2009. Airway epithelial hypertrophy and peribronchial smoothmuscle hypertrophyweremeasured as the area of epithelial or smoothmuscle per circumference of airway basement membrane. Airway inflammation was measured as the area of inflammatory infiltrates as a percentage of the total field. A minimum of 5 airways per mouse and 5 to 9 mice per group were quantified. Images were acquired on a Nikon Eclipse TE2000-U microscope by using 320 dry lenses at room temperature through a Diagnostics Instruments camera model #4.2 with Spot software 5.0 (Diagnostic Instruments, Inc, Sterling Heights, Mich.). H&E sections were mounted with Permount medium (Thermo Fisher Scientific, Inc, Waltham, Mass.). Images were adjusted for brightness and contrast to improve viewing.
Lungs were perfused with saline, and single-cell suspensions of lung cells were acquired by using mechanical mincing of lungs followed by digestion at 37° C. for 45 minutes in RPMI with 10% FBS, 1% penicillin/streptomycin, and collagenaseA (1 mg/mL). Cell suspensions were agitated at room temperature for 10 minutes in RPMI with 100 U/mL DNAse I before filtration through 40-mm filters and red blood cell lysis. Single-cell suspensions were subsequently fixed in 4% paraformaldehyde for flow cytometric analysis.
Mouse ILC2s. For mouse flow cytometric staining, all conjugate antibodies were purchased from BioLegend (San Diego, Calif.), unless otherwise stated. Mouse lung digest cells were fixed with 4% paraformaldehyde and incubated with 10% donkey serum and 1% 2.4G2. […]

[6] = intranasal, 400 ng per dose for 3 days, 15 days after
[7] = intranasal, 3 consecutive days, 400 ng per dose, 15 days after

IL-17: cytokine purchased from PeproTech, 10 ng/mL on A549 cells
induction of IL-33 mRNA [1]: directly induced IL-33

IL-113: probably IL-1b cytokine (PeproTech, 2 ng/mL on A549 cells), misprinted
induction of IL-33R mRNA [2]: strong inducer of IL-33R | IL-33 autoinduction after preincubation with cytokine [3]: unable to facilitate IL-33 autoinduction

C[C@@H]1C[C@H]2[C@@H]3CCC4=CC(=O)C=C[C@]4(C)[C@@]3(F)[C@@H](O)C[C@]2(C)[C@@]1(O)C(=O)CO [Dexamethasone, dexamethasone]
cell count decrease after dexamethasone treatment, MEK^low CD4 T cells [4]: 2.7 fold

B1: IL-33: interleukin-33 cytokine, given intranasally to mice or added to A549 cells (protein, UniProt Q8BVZ5 1-266, looked up)
Interleukin-33: MRPRMKYSNSKISPAKFSSTAGEALVPPCKIRRSQQKTKEFCHVYCMRLRSGLTIRKETSYFRKEPTKRYSLKSGTKHEENFSAYPRDSRKRSLLGSIQAFAASVDTLSIQGTSLLTQSPASLSTYNDQSVSFVLENGCYVINVDDSGKDQEQDQVLLRYYESPCPASQSGDGVDGKKLMVNMSPIKDTDIWLHANDKDYSVELQRGDVSPPEQAFFVLHKKSSDFVSFECKNLPGTYIGVKDNQLALVEEKDESCNNIMFKLSKI
persistence of airway hyperreactivity and airway inflammation ([5]; after intranasal IL-33, 400 ng per dose for 3 days): 2 weeks | IL-51 ILC2 numbers [5, 6]: increased | number of lung IL-131 ILC2s [5, 6]: increased | total number of IL-51 and IL-131 lung cells [5, 6]: increased | airway hyperreactivity [5, 7]: induced airway hyperreactivity | airway inflammation [5, 7]: mild airway inflammation | IL-33 production (autoinduction) in lung cells ([5]; pro-surfactant protein C-positive epithelial cells and CD11b+ hematopoietic cells, 2 weeks after intranasal IL-33): persistent IL-33 production was observed | induction of IL-33 mRNA [1]: capable of autoinduction

B2: IL-4: cytokine purchased from PeproTech, 10 ng/mL on A549 cells (protein, UniProt P05112 25-153, looked up)
Interleukin-4: HKCDITLQEIIKTLNSLTEQKTLCTELTVTDIFAASKNTTEKETFCRAATVLRQFYSHHEKDTRCLGATAQQFHRHKQLIRFLKRLDRNLWGLAGLNSCPVKEANQSTLENFLERLKTIMREKYSKCSS
induction of IL-33 mRNA [1]: directly induced IL-33
